B1: vRNA promoter (5' nt 1-16 / 3' nt 1-18) (structured_RNA)
RNA 1: AGUAGUAACAAGAGGG
RNA 2: UAUACCUCUGCUUCUGCU
modifications: 5' phosphate on strand 1

Biological target: Influenza A polymerase heterotrimer (PA-PB1-PB2) (Influenza A virus A/little …, UniProt H6QM92;H6QM91;H6QM90 1-713;1-756;1-760)
Assay: crystal structure

| Binder | binding result |
| --- | --- |
| AAUCUAUAAUAG (ssRNA, 5' m7Gppp cap) [capped 12-mer RNA primer] | binds |
| B1 | binds |

From paper PMC5778463
